For the assay, the target named is Parent. Description: antigen titration binding curve (Norm. RFU).

The values below come from patent publication US20220144953A1 (published 2022).

In general, Kd refers to the constant that tells how readily two partners part at equilibrium.

B1: Mouse (receptor)
chain: FKVTTPYSLYVCPEGQNATLTCRILGPVSKGHDVTIYKTWYLSSRGEVQMCKEHRPIRNFTLQHLQHHGSHLKANASHDQPQKHGLELASDHHGNFSITLRNVTPRDSGLYCCLVIELKNHHPEQRFYGSMELQVQAGKGSGSTCMASNEQDSDSITAA
With B1, the Kd turned out to be 165 nM.
